Data as given in paper doi:10.1101/756932 (bioRxiv, 2019).

Assays:
[1] = biological target: ERK (endogenous, mouse ME cells) (mouse (endogenous in ESC-derived ME cells)) (UniProt Q63844); assay: proximity ligation
[2] = biological target: Aurora B (endogenous, mouse cells) (mouse (endogenous in E14 ESCs), UniProt O70126 1-345); assay: proximity ligation
Chain of Aurora B (endogenous, mouse cells) (O70126 whole entry): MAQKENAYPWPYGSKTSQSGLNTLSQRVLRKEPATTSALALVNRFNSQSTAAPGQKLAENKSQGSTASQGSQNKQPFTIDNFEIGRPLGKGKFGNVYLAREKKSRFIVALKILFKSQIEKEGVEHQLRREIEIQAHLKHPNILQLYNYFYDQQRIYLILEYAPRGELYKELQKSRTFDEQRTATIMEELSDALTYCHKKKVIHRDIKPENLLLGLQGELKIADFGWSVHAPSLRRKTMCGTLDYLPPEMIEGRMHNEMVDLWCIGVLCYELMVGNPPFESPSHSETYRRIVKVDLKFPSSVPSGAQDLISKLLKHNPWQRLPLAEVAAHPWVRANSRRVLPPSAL

Chain of ERK (endogenous, mouse ME cells) (mouse (endogenous in ESC-derived ME cells)) (Q63844 whole entry): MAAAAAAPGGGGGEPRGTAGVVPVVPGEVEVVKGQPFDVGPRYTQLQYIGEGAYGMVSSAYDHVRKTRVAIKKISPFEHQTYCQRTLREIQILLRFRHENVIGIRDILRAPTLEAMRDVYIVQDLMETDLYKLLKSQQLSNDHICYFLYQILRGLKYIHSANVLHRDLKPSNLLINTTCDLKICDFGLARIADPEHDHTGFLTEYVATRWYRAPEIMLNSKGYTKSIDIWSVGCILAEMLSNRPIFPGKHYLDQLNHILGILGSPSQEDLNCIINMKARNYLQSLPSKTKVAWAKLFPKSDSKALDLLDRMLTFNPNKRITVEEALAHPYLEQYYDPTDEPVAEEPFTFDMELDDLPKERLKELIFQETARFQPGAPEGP

B1: CNOT3-T292A/S294A (endogenous, Cnot3-DM mouse ESCs) (natural protein, mouse (endogenous in E14 ESCs), UniProt Q8K0V4 1-751, looked up)
chain: MADKRKLQGEIDRCLKKVSEGVEQFEDIWQKLHNAANANQKEKYEADLKKEIKKLQRLRDQIKTWVASNEIKDKRQLIENRKLIETQMERFKVVERETKTKAYSKEGLGLAQKVDPAQKEKEEVGQWLTNTIDTLNMQVDQFESEVESLSVQTRKKKGDKDKQDRIEGLKRHIEKHRYHVRMLETILRMLDNDSILVDAIRKIKDDVEYYVDSSQDPDFEENEFLYDDLDLEDIPQALVATSPPSHSHMEDEIFNQSSSTPTSTTSSSPIPPSPANCTTENSEDDKKRGRSADAEVSQSPAKNGSKPVHSNQHPQSPAVPPTYPSGPPPTTSALSSTPGNNGASTPAAPTSALGPKASPAPSHNSGTPAPYAQAVAPPNASGPSNAQPRPPSAQPSGGSGGGSGGSSSNSNSGTGGGAGKQNGATSYSSVVADSPAEVTLSSSGGSSASSQALGPTSGPHNPAPSTSKESSTAAPSGAGNVASGSGNNSGGPSLLVPLPVNPPSSPTPSFSEAKAAGTLLNGPPQFSTTPEIKAPEPLSSLKSMAERAAISSGIEDPVPTLHLTDRDIILSSTSAPPTSSQPPLQLSEVNIPLSLGVCPLGPVSLTKEQLYQQAMEEAAWHHMPHPSDSERIRQYLPRNPCPTPPYHHQMPPPHSDTVEFYQRLSTETLFFIFYYLEGTKAQYLAAKALKKQSWRFHTKYMMWFQRHEEPKTITDEFEQGTYIYFDYEKWGQRKKEGFTFEYRYLEDRDLQ
- fold reduction of PLA interaction foci in the cytoplasm against wild-type cells [1]: 3 fold
- fold reduction of PLA interaction foci in the nucleus against wild-type cells [1]: 5 fold
- fold increase of PLA interaction against wild-type cells [2]: ~3 fold
